Target: the molecule itself
Assay: crystal structure; HTkC at 4.0 mg/mL in 50 mM Tris-HCl pH 7.0, 100 mM KCl, 10% glycerol; sitting drop vapor diffusion, reservoir 0.01 M trisodium citrate, 33% (w/v) PEG 6000; space group P2(1)2(1)2(1), 1.84 Å; four monomers in the asymmetric unit

B1: face-to-face (FtF) histone from Thermococcus kodakarensis (HTkC) (natural protein)
chain: MAEMLVKSKVKEFVKSVDPEMRVSPEFYDALEAEVKALVEKAIKRAQAEGRKTLYARHV
notes: Face-to-face (FtF) histone HTkC of Thermococcus kodakarensis, product of gene TK1040; synthesized gene cloned into pET30b (plasmid pRD503); The purification used heat, heparin and SEC only, so the protein is probably untagged (surmised); Oligonucleotides for cloning are in the Supplementary Information; also called FtF histone HTkC; TK1040; source: E. coli BL21(DE3)pLysS, purified (heating at 70 …)
  stoichiometry N: 4
